Test results taken from patent publication US7807363B2, “Superoxide dismutase-2 expression for glaucoma diagnosis” (Alcon Research, Ltd., priority 2006, dated 2010).

Test system: SOD-2 mRNA in NTM-115 cells
Test: RT-qPCR of SOD-2 mRNA in NTM-115 TM cells treated with SAA
Assay type: cell-based
Settings: rhSAA 40 ug/ml, 24 hr, compared to untreated cells, FIG. 4
Protocol: SOD-2 mRNA levels in FIG. 1 were measured using real-time quantitative PCR (RT-qPCR). In the RT-qPCR protocol used in one embodiment of the present invention, total RNA was extracted from cultured TM cells or from RNAlater-preserved ocular tissues by using a commercial kit of RNAqueous-4 PCR (Ambion, Austin, Tex.) according to the manufacturer's instructions. RNA quality was assessed by agarose gel electrophoresis or with a 2100 Bioanalyer (Agilent). cDNA was synthesized using MultiScribe reverse transcriptase and random hexamers (PE Applied Biosystems, Foster City, Calif.). Real-time PCR was performed using the ABI Prism 7700 Sequence Detection System according to the manufacturer's instructions (Applied Biosystems, Foster City, Calif.). […] Relative RNA concentrations were determined by comparison to a standard curve generated by different dilutions of TM cell cDNA. […]
In this embodiment, a TM cell line is treated with SAA, which causes overexpression of SOD-2. After addition of the test compound or appropriate vehicle control, the levels of SOD-2 are measured in the test and control replicates via qPCR using the protocol given in the description accompanying FIG. 1. […]

B1: serum amyloid A (protein, UniProt P0DJI8 19-122, looked up)
Serum amyloid A-1 protein: RSFFSFLGEAFDGARDMWRAYSDMREANYIGSDKYFHARGNYDAAKRGPGGAWAAEVITDARENIQRFFGHGAEDSLADQAANEWGRSGKDPNHFRPAGLPEKY
notes: acute-phase reactant protein; recombinant human SAA used to induce SOD-2 overexpression in TM cells
Question: How did the “SOD-2 mRNA levels” value turn out when B1 was run?
Answer: The value was “increased levels of SOD-2 mRNA”.
